{"source": "patent US10538591B2", "about": "“Anti-fibulin-3 antibodies and uses thereof” (THE BRIGHAM AND WOMEN'S HOSPITAL, INC., priority 2014, dated 2020)", "molecules": {"B1": {"name": "mAb428.2: mouse monoclonal IgG1 kappa antibody against human fibulin-3 peptide SEQ ID NO:2; VH SEQ ID NO: 3, VL SEQ ID NO: 4 (antibody, V domains shown)", "VH": "QIQLVQSGPELKKPGETVKISCKASGYSFTTYGMSWVKQAPGKGLKWMGWINTYSGVPTYADDFKGRFAFFLETSASTAYLQINNLKNEDTATYFCARWVDYWGQGTTLTVSS", "VL": "DIKMTQSPSSMYASLGERVTITCKASQDIKSYLSWHQQKPWKSPKTLIYYATSLADGVPSRFSGSGSGQDYSLTISSLESDDTATYYCLQHGKSPYTFGGGTKLEIK"}}, "key": {"Normal human astrocytes": {"system": "Normal human astrocytes", "test": "Viability of normal human astrocytes", "assay_type": "cell-based", "details": "mAb428.2, conditions not given", "description": "Normal human astrocytes and glioma cell lines (U251MG, U87MG and CNS1) were cultured as adherent cells in 96-well plates (10,000 cells/well). Three primary cultures of glioma-initiating cells (GBM8, GBM9 and GBM34) were cultured in suspension using appropriate medium in 96-well plates (25,000 cells/well). All cells were exposed to anti-Fib3/911 (50 μg/mL) or its pre-immune serum for 72 h, followed by measurement of cell viability as indicated in FIG. 5. […] In contrast, normal astrocytes were not affected by the antibody (** p<0.01; *** p<0.001, one-way ANOVA for each cell line)\nAntibodies against fibulin-3 induce cytotoxicity in a wide range of glioma cells but not in normal cells. […] This antibody was added to cultures of different glioma cell lines (U251MG, U87MG, CNS1) as well as cultures of glioma initiating cells that produce large amounts of fibulin-3 (GBM8, GBM9, GBM34). […] Vehicle control (PBS) and the pre-immune serum of anti-fibulin-3/91I were tested as controls. Cell viability was measured after 72 hours. […] Neither the vehicle nor the pre-immune serum affected cell viability (FIG. 7)."}, "[1]": {"system": "Notch signaling induced by fibulin-3", "test": "Notch reporter in ARPE19 retinal pigmented epithelial cells", "assay_type": "cell-based, human", "details": "100 μg/ml, 0, 2, 4, 6 and 24 h", "description": "Cells were co-transfected with plasmids carrying fibulin-3 cDNA (Fib3 OE) or a control cDNA (Control) and incubated in serum-free conditions for 24 h (FIG. 18). The following day mAb428.3C11 (100 μg/ml) was added to the cultures and Notch (left panel) or NF-kB (right panel) signaling activities were measured after 0, 2, 4, 6, and 24 h. […] The inhibitory effect caused by the antibody on control reporter signaling (black dots) may have been caused by blocking of endogenous fibulin-3 that is highly expressed by ARPE19 cells."}, "[2]": {"system": "GBM34 glioblastoma stem cells", "test": "BrdU uptake in tumors after intravenous treatment", "assay_type": "in vivo, mice", "details": "8×30 mg/kg IV, BrdU 1 h before euthanasia", "description": "Control and tumor mice studied in FIG. 11 for overall survival (treated with antibody 8×30 mg/kg, IV) were injected with 5-bromo-2′-deoxyuridine (BrdU, 50 mg/kg, IP) 1 h before euthanasia. BrdU staining of actively dividing cells. Tumors from 3 mice per group were processed for immunohistochemistry to detect BrdU uptake, corresponding to actively dividing cells. Tissue sections were imaged by fluorescence microscopy and quantified blindly using ImageJ image analysis software. DAPI was used to stain cell nuclei. Results were expressed as number of BrdU-positive cells per unit of tumor area. […] (Data not shown)."}, "purified human fibulin-3": {"target": "T1, purified human fibulin-3 (Homo sapiens, UniProt Q12805)", "T1 construct": "purchased ORIGENE", "T1 sequence (Q12805 18-493)": "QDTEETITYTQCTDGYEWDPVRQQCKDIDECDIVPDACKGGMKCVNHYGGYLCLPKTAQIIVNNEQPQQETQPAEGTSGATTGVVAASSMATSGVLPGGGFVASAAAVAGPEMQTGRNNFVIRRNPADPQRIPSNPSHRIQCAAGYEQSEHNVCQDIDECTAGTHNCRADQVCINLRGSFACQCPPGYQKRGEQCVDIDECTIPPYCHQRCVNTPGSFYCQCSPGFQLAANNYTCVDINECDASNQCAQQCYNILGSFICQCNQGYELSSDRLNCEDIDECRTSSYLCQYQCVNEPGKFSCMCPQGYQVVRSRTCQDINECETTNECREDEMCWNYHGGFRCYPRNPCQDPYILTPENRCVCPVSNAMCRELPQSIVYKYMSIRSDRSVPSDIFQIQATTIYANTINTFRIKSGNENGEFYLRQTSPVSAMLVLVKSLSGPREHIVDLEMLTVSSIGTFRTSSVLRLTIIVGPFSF", "test": "Western blot and dot-blot detection of fibulin-3", "assay_type": "binding", "description": "CNSI glioma cells were transfected with fibulin-3 cDNA (fib3-OE cells) or a control plasmid (control cells) and cultured for 24 h in serum-free conditions. Conditioned medium was collected and probed by Western blotting with anti-Fib3/911 (911), anti-Fib3/912 (912), or their respective preimmune sera (antibodies and sera were used at 1/5000 dilution).\nTwo rabbit polyclonal antibodies were commissioned against the 23-amino acid peptide sequence of fibulin-3 involved in Notch activation. The peptide was minimally modified to facilitate the formation of a disulfide bridge necessary to form a conformational, tri-dimensional epitope (FIG. 4). Antibodies against fibulin-3 (“anti-Fib3/911” and “anti-Fib3/912”) were purified by affinity chromatography, aliquoted, and prepared in phosphate-buffered saline (PBS) solution for all subsequent tests.\nPurified human fibulin-3 (200 ng/lane, ORIGENE) was subjected to SDS-PAGE in reducing and non-reducing conditions and probed with affinity-purified mAb428.3C11 (0.4 to 20 μg/ml, diluted in PBS from a 2 mg/ml stock).\nConcentrated, serum-free culture medium from HEK293 cells (1 mg/ml total protein) was probed with anti-human IgG secondary antibody (HRP conjugate) to detect the chains of antibody in reducing and non-reducing conditions. C) Concentrated medium from HEK293 cells (1 mg/ml total protein) was directly used to probe purified human fibulin-3 (resolved by SDS-PAGE in non-reducing conditions)."}}}
{"molecule": "B1", "values": [{"measurement": "effect on normal astrocytes", "setting": "Normal human astrocytes", "result": "without effects on normal astrocytes"}, {"measurement": "effect on fibulin-3-induced Notch reporter activity", "setting": "[1]", "result": "strong blocking effect"}, {"measurement": "tumor cell division (BrdU-positive cells per unit of tumor area)", "setting": "[2]", "result": "significant decrease in tumor cell division"}, {"measurement": "detection of fibulin-3 by Western blotting", "setting": "purified human fibulin-3; SDS-PAGE, reducing and/or non-reducing conditions", "result": "high sensitivity of the antibody towards fibulin-3"}, {"measurement": "detection of native fibulin-3 by dot-blotting", "setting": "purified human fibulin-3; non-reduced fibulin-3 on nitrocellulose, scFv428.2 medium 1 mg/ml, mAb428.2 1 μg/ml", "result": "able to detect native fibulin-3 by dot-blotting"}]}
